From patent US20190248882A1 (published 2019) come the findings set out here.

A value given as a limit tells only on which side of the number the result lay.

One test deals with A33A8 VH. Description: BLI (Octet); VH domain alone. (In general: BLI is a label-free optical method that tracks binding on a fibre tip over time.)
For test [1], the target named is T1, human ANG-2 (R&D Systems) (UniProt O15123 68-496, biotinylated in the Tie-2 competition ELISA (site not stated)).
T1 chain: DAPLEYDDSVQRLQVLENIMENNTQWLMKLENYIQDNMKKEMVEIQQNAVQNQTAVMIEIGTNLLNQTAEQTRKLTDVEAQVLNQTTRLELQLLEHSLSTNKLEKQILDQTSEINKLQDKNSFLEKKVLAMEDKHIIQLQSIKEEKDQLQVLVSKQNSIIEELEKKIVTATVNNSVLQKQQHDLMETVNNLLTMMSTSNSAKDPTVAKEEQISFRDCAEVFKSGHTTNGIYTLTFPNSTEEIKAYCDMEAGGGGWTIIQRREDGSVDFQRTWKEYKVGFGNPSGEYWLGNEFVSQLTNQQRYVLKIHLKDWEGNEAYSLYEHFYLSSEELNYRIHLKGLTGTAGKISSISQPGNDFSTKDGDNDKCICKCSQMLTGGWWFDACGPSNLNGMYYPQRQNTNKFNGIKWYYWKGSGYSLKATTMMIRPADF
Nature of the test: inhibition of ANG-2 binding to Tie-2 on HEK293 cells.

B1: ANG-2 (ligand)
chain: T1 chain
modifications: biotinylated in the Tie-2 competition ELISA (site not stated)
The Kd is the concentration at which binding is half-saturated. Read a low Kd as higher affinity. In turn, B1 gave an equilibrium dissociation constant (Kd) with A33A8 VH of less than 1 pM.

B2: A33A8 human anti-ANG-2 HCAb (antibody, V domains shown)
VH: QVQLVESGGGLVQPGGSLRLSCAASGFTFSSYWMHWVRQAPGKGLVWVSRINSDGSSTSYADSVKGRFTISRDNAKNTLYLQMNSLRAEDTAVYYCAREGYSSGGQFDYWGQGTLVTVSS
The IC50 is the concentration that gives 50% inhibition. A higher IC50 goes with a need for much substance. B2 yielded a 50% inhibitory concentration (IC50) in test [1] of 0.295 nM.
